The values below come from PMC12913813.

This assay concerns the target Smog::GFP (Drosophila). As to the kind of experiment: fluorescence correlation spectroscopy.

As to Smog::GFP (receptor), the estimated fraction of dimers (monomer/dimer model), WT embryos is 68%; the estimated fraction of dimers (monomer/dimer model), control embryos is 79%; the estimated fraction of dimers (monomer/dimer model), gprk2 RNAi embryos is 100%; the estimated fraction of trimers (monomer/trimer model), control embryos was 21%. Further, the estimated fraction of trimers (monomer/trimer model), gprk2 RNAi embryos was 76%.
